B1: recombinant PyEBL ectodomain spanning region 1 to region 6 (PyEBL R1-6; amino acids V28-N788) (domain or fragment)
chain: VNLLKRTYESFQSFPLKNNSGNRILYELKESLYNIENGETWGDLVSKDNEIFGGKDHILSENYTSDSVNSKKESNFLETGKISLVEKNGNVNYKDYFDKYQVNECKEKNKNEIHAWICDNEKQNCIPSRRINLCTKRLEIIPDTIKIPDNKTKELLMDYFKQFIYKDAAREGELLLNKYDDKNNNEYCNDMINSFGDYKNIVEGTGLKNVANESLLELKIQNIFGTDDNAKRNRKTWWKNHEHIVWKAMVLGKNFNETSNYKNVCTNYKLEDYHSQIERWTREWIQEFSVQYFKEANKINNKCTKKSNISTESICINNECKNACNTYEAWISVNKSKWDTLLQRFSQFNKSYFSEETCRDKAYNSLMIEFKEAYEANFENVINLDDDHYTGLCVCSSVKPSNTPINNNLGYKQTLETQNPTDASQNTLFPPFSTGTETDLFKEDDDDNGGFDLLSYNNADAQNLRNSTPTDQVGVNNEQNKLNQNAESNNKYELQIMGNHANSDNTYHNIIIPSQENNIYTSTPESVTINPTSTSNTNENQTLTPNSTLTPTLTSNSNPTQIPTQPQPQFPIPPQPQFPIPPETQFPIPPETQIPTPTLNPNATNKGVKEHHFNTNGIENGNTMKDQMNIPPIKFNIDPKHDNTINGGFSRINNDNDSENANKLGIDEYEHRDIKKSRENIIMLANENVCNGNPGLKYCESINNKYFHGTCSKSQTQNLCCSISNYCIKFFNINSKKYYDCMNEEFMAPDYNCFQKESYSN
B2: recombinant PyEBL R1-2 (amino acid V28-G437) (domain or fragment)
chain: VNLLKRTYESFQSFPLKNNSGNRILYELKESLYNIENGETWGDLVSKDNEIFGGKDHILSENYTSDSVNSKKESNFLETGKISLVEKNGNVNYKDYFDKYQVNECKEKNKNEIHAWICDNEKQNCIPSRRINLCTKRLEIIPDTIKIPDNKTKELLMDYFKQFIYKDAAREGELLLNKYDDKNNNEYCNDMINSFGDYKNIVEGTGLKNVANESLLELKIQNIFGTDDNAKRNRKTWWKNHEHIVWKAMVLGKNFNETSNYKNVCTNYKLEDYHSQIERWTREWIQEFSVQYFKEANKINNKCTKKSNISTESICINNECKNACNTYEAWISVNKSKWDTLLQRFSQFNKSYFSEETCRDKAYNSLMIEFKEAYEANFENVINLDDDHYTGLCVCSSVKPSNTPINNNLG
B3: recombinant PyEBL R2, the N-terminal Cys-rich Duffy binding-like region (E113-G437) (domain or fragment)
chain: EKNGNVNYKDYFDKYQVNECKEKNKNEIHAWICDNEKQNCIPSRRINLCTKRLEIIPDTIKIPDNKTKELLMDYFKQFIYKDAAREGELLLNKYDDKNNNEYCNDMINSFGDYKNIVEGTGLKNVANESLLELKIQNIFGTDDNAKRNRKTWWKNHEHIVWKAMVLGKNFNETSNYKNVCTNYKLEDYHSQIERWTREWIQEFSVQYFKEANKINNKCTKKSNISTESICINNECKNACNTYEAWISVNKSKWDTLLQRFSQFNKSYFSEETCRDKAYNSLMIEFKEAYEANFENVINLDDDHYTGLCVCSSVKPSNTPINNNLG

Experiments:
[1] = molecular target: GST tagged ecto-basigin (recombinant mouse basigin) (mouse (C57BL/6J)) (UniProt P18572); assay: SPR; Biacore X100; recombinant mouse basigin (GST tagged) immobilised on CM5 chip by amine coupling; PyEBL regions as analytes; HBS-EP+ (10 mM HEPES pH 7.4, 150 mM NaCl, 3 mM EDTA, 0.05% P20); single-cycle kinetics, 1:1 binding model
[2] = molecular target: T1, GST tagged ecto-basigin (recombinant mouse basigin) (mouse (C57BL/6J), UniProt P18572 22-325); assay: SPR
T1 chain: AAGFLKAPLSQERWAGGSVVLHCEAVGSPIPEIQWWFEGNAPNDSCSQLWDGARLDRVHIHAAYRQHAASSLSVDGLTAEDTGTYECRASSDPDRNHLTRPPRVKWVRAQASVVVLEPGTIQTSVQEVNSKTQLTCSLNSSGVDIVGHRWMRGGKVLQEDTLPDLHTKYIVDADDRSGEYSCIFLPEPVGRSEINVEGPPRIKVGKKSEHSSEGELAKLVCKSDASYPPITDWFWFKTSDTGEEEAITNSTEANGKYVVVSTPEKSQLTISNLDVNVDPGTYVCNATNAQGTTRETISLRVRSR

Molecule	Kd [1] [nM]	koff [2] [s⁻¹]
recombinant PyEBL C351Y (domain or fragment)	26	–
recombinant PyEBL R1-2 (amino acid V28-G437) (domain or fragment)	16	–
recombinant PyEBL R2, the N-terminal Cys-rich Duffy binding-like region (E113-G437) (domain or fragment)	34	–
recombinant PyEBL ectodomain spanning region 1 to region 6 (PyEBL R1-6; amino acids V28-N788) (domain or fragment)	33	–
B1	–	0.00106
B2	–	0.00713
B3	–	0.00104

Reference: PMC8079763 (2021)
